From patent US20260209362A1 (VIB VZW, published 2026) come the findings set out here.

Usually koff stands for a measure of how fast the partners let go of each other.

The target in assay [1] is T1, biotinylated recombinant mouse IL-12Rβ2 (mouse, UniProt P97378 24-637, random biotinylated).
T1 construct: Recombinant protein produced in-house, biotinylated; also called mIL-12RB2; mouse IL-12RB2
T1 sequence: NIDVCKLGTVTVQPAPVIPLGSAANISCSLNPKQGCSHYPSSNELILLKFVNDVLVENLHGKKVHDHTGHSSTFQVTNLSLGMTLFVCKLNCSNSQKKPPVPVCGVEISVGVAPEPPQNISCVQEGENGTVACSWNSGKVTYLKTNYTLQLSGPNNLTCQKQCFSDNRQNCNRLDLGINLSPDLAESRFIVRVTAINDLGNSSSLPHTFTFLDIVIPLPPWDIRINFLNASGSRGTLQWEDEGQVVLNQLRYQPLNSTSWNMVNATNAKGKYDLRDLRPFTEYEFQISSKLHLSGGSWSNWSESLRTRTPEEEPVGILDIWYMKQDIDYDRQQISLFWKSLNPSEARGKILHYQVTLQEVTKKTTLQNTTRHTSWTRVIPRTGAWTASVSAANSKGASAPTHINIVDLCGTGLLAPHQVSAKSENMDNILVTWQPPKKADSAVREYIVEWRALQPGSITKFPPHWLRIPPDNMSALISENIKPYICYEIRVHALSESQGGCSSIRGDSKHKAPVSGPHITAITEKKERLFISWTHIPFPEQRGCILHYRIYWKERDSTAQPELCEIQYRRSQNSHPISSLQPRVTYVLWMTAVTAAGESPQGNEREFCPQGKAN
Nature of the assay: ELISA, periplasmic extract on biotinylated mIL-12Rβ2, signal over control wells.

Assay [2] addresses T2, biotinylated recombinant human IL-12Rβ2 (human, UniProt Q99665 24-622, random biotinylated).
T2 construct: Recombinant protein produced in-house, biotinylated; also called hIL-12RB2; human IL-12RB2
T2 sequence: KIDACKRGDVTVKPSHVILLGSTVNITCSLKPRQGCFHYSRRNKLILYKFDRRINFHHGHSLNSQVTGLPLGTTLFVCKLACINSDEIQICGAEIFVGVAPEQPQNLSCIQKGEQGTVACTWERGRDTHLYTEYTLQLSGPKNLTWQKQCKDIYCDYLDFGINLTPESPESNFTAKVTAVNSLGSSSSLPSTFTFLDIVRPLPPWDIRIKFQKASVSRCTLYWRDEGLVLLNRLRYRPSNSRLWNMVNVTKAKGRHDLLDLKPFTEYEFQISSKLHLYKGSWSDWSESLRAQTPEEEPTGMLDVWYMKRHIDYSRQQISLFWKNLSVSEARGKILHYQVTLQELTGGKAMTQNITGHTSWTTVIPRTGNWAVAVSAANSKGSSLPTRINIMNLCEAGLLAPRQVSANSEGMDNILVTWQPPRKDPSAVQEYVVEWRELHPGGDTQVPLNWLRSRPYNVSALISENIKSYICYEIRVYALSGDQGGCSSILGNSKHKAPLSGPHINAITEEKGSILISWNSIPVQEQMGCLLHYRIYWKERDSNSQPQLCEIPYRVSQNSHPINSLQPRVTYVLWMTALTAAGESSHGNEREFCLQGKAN
Nature of the assay: BLI (Octet), periplasmic extract on biotinylated hIL-12Rβ2 on streptavidin tips. (In general: In BLI a coated tip is dipped into the sample, and binding shifts an interference pattern.)

Assay [3] concerns the target T2, biotinylated recombinant human IL-12Rβ2. Nature of the assay: BLI (Octet), periplasmic extract on biotinylated hIL-12Rβ2 on streptavidin tips, 1:1 model.
The target is the same in assay [4]. Nature of the assay: ELISA, periplasmic extract on biotinylated hIL-12Rβ2, signal over control wells. (In general: ELISA stands for enzyme-linked immunosorbent assay.)

B1: anti-IL-12Rβ2 VHH clone 20372 (VHH, not shown: small tags and cut ends)
VHH: QVQLQESGGGLVQAGGSLRLSCAASARTESMYAMAWFRQAPGKEREIVAGIIQSGGTTYISDYMKGRFSIDRGNAENTVYLQMDSLKPEDTAVYSCAAKVSSGTPSDIQISQSRWYDHWGQGTQVTVSS
notes: tested as periplasmic extract; also called 2CRH82
Take B1: the “ELISA binding mIL-12RB2/control” value in assay [1] was 1.77 ratio. The Response in assay [2] is 0.426. The koff in assay [3] was determined as 0.00274 s⁻¹. Moreover, the “ELISA binding hIL-12RB2/control” value in assay [4] is 16.1 ratio.

B2: anti-IL-12Rβ2 VHH clone 20389 (VHH, not shown: small tags and cut ends)
VHH: QVQLQESGGGLVRAGGSLRLSCAASGHTFSNYVMGWFRQAPGKEREFVAAISWGGSNTYYADSVKGRFTISRDNAKNTVYLQMNSLKVEDTAVYYCAADRRFEGWNYYSMDYWGKGTQVTVSS
notes: tested as periplasmic extract; also called 3CRH73
As for B2, the “ELISA binding mIL-12RB2/control” value in assay [1] turned out to be 1.18 ratio. For the same molecule, the Response in assay [2] came out at 0.565. The koff in assay [3] came to 0.0052 s⁻¹. Besides, the “ELISA binding hIL-12RB2/control” value in assay [4] was 6.45 ratio.

B3: anti-IL-12Rβ2 VHH clone 20358 (VHH, not shown: small tags and cut ends)
VHH: QVQLQESGGGSVQPGGSLRLSCGASGFTFSSFGMHWFRQAPGKGQEWAATISSSGGTTYYSDSVKGRFTISRDNAKNTLYLQMNSLKPEDTALYYCARDVTGAVRGQGTQVTVSS
notes: tested as periplasmic extract; also called 3CAH34
Regarding B3, the “ELISA binding mIL-12RB2/control” value in assay [1] was determined as 1.12 ratio. Moreover, in assay [2], the Response turned out to be 0.69. For the same molecule, the koff in assay [3] stood at 0.00636 s⁻¹. Moreover, the “ELISA binding hIL-12RB2/control” value in assay [4] is 5.01 ratio.

B4: anti-IL-12Rβ2 VHH clone 20408 (VHH, not shown: small tags and cut ends)
VHH: QVQLQESGGGSVQAGGSLRLSCGASGFTFSSFGMHWFRQAPGKGQEWVATISSSGGTTYYSDSVKGRFTISRDNAKNTLYLQMNSLKPEDTALYYCARDVTGAVRGQGTQVTVSS
notes: tested as periplasmic extract; also called 3CAHS172
B4: in assay [1], the “ELISA binding mIL-12RB2/control” value was 1.11 ratio. The Response in assay [2] worked out at 0.388. Besides, in assay [3], the koff was found to be 0.00383 s⁻¹. The “ELISA binding hIL-12RB2/control” value in assay [4] turned out to be 3.49 ratio.

B5: anti-IL-12Rβ2 VHH clone 20391 (VHH, not shown: small tags and cut ends)
VHH: QVQLQESGGGLVQAGGSLRLSCAASGRTVDSYAMGWFRQTPGKEREFVAASWGGGSTYYADSVKGRFTISRDNVKNTMYLQMDSLKPEDTAVYYCAAGPTYYSGPINDNWEGRYDSWGQGTQVTVSS
notes: tested as periplasmic extract; also called 3CRH93
In the case of B5, in assay [1], the “ELISA binding mIL-12RB2/control” value was 1.38 ratio. The Response in assay [2] came to 0.426. The off-rate constant (koff) in assay [3] amounted to 0.00486 s⁻¹. Also, in assay [4], the “ELISA binding hIL-12RB2/control” value turned out to be 3.45 ratio.

B6: anti-IL-12Rβ2 VHH clone 20404 (VHH, not shown: small tags and cut ends)
VHH: QVQLQESGGGLVQAGGSLRLSCAASGRTFSSYAMGWFRQVPGKERDFVAAVSWGGLSTYYADSVEGRFTISRDNAKNTVFLQMNSLKPEDTAVYYCAADRAYEGLGYGEYEYWGQGTQVTVSS
notes: tested as periplasmic extract; also called 3CAHS153
Regarding B6, the “ELISA binding mIL-12RB2/control” value in assay [1] turned out to be 1.08 ratio. For the same molecule, the Response in assay [2] came to 0.163. Further, in assay [3], the koff amounted to 0.00302 s⁻¹. Also, the “ELISA binding hIL-12RB2/control” value in assay [4] was determined as 3.32 ratio.

B7: anti-IL-12Rβ2 VHH clone 20370 (VHH, not shown: small tags and cut ends)
VHH: QVQLQESGGGLVQTGGSLRLSCVASGRTFNWSAMGWFRQPPGKEREVVATISGGGTSAYYADSVKGRFTISRDGAKNTLYLQMNSLKPEDTAVYYCAADRVDYRMTLTQNGNHYWGQGTQVTVSS
notes: tested as periplasmic extract; also called 2CRH76
B7: the “ELISA binding mIL-12RB2/control” value in assay [1] is 0.937 ratio. Besides, the Response in assay [2] is 0.479. For the same molecule, in assay [3], the koff amounted to 0.00354 s⁻¹. For the same molecule, the “ELISA binding hIL-12RB2/control” value in assay [4] is 4.57 ratio.
